Reference: patent US20160083450A1, “HUMAN PROTEIN SCAFFOLD WITH CONTROLLED SERUM PHARMACOKINETICS” (THE REGENTS OF THE UNIVERSITY OF CALIFORNIA, priority 2009, published 2016)

How the values were obtained:
[1] = set-up: species or system Balb/c mice; settings: mouse, in vivo
Experimental: Their pharmacokinetic profile in blood was evaluated in vivo by injecting each ^131I-labeled DIII protein intravenously in Balb/c mice. Blood was drawn from the tail at eight different time points (0-72 h) and the radioactivity was counted in a gamma well counter.

[2] = type: physicochemical
Experimental: (§1) When dissolved in aqueous solution, the peptide precipitated. Lack of solubility in water immediately renders this peptide inappropriate for in vivo application. Prior to conjugation, the HyNic modified peptide was dissolved in dimethyl formamide (DMF) organic solvent. The purified DIM was modified to incorporate the 4FB moiety at random lysine residues following protocols provided by SoluLink. After conjugation, the peptide/DIII ratio was determined by measuring A354nm to be an average of 2 CEA specific peptides for every DIIIb molecule and the conjugate was soluble in aqueous solutions. Size exclusion chromatography using Superdex 200 column (GE Healthcare Piscataway, N.J.) was used for purification. Purified anti-CEA peptide-DIIIb conjugates were then radiolabeled with ^124I and injected intravenously in four athymic nude mice bearing LS174T (CEA positive) and C6 (CEA negative) tumors. Mice were imaged by small animal PET/CT at 4, 20 and 27 h, after which mice were euthanized, dissected and tissues/organs were counted in a gamma well counter.

[3] = test system: LS174T (CEA positive) tumor; type: in vivo, athymic nude mice
Experimental: as §1

DIII H464A: HSA domain III variant with H464 mutated to alanine
AUC (time integral of the blood uptake) [1]: 199 % ID/g × h | Aα (amplitude) [1]: 44.95 % ID/g | Aβ (amplitude) [1]: 11.41 % ID/g | k1 [1]: 1.438 | k2 [1]: 0.068 | t1/2α [1]: 0.482 h | t1/2β [1]: 10.2 h

DIII WT: HSA domain III wild type (amino acid residues 384 to 585)
AUC (time integral of the blood uptake) [1]: 474.8 % ID/g × h | Aα (amplitude) [1]: 36.2 % ID/g | Aβ (amplitude) [1]: 16.81 % ID/g | k1 [1]: 0.3479 | k2 [1]: 0.04534 | t1/2α [1]: 1.99 h

SDWVCEFIKSQWFCNVLASG [CEA specific, cyclic peptide, reference compound]
Solubility in aqueous solution [2]: precipitated

B1: anti-CEA peptide-DIIIb conjugate: CEA specific cyclic peptide (HyNic) conjugated to 4FB-modified DIIIb, average of 2 peptides per DIIIb (conjugate)
chain: HADICTLSEKERQIKKQTALVELVKHKPKATKEQLKAVMDDFAAFVEKCCKADDKETCFAEEGKKLVAASQAALGL
peptide: SDWVCEFIKSQWFCNVLASG
modifications: cyclised or stapled
notes: CEA specific cyclic peptide (HyNic) conjugated to 4FB-modified DIIIb, average of 2 peptides per DIIIb
Solubility in aqueous solution [2]: soluble | (CEA positive) tumor/(CEA negative) tumor ratio ([3]; 27 h): 1.2 | Tumor/muscle ratio ([3]; 27 h): 5.1 | tumor/blood ratio ([3]; 27 h): 0.51 | Targeting of CEA positive tumor ([3]; PET/CT images): target the CEA positive tumor | Blood ([3]; mouse, in vivo): 3.00 % ID/g | C6 Tumor ([3]; mouse, in vivo): 1.26 % ID/g | Carcass ([3]; mouse, in vivo): 0.56 % ID/g | Kidneys ([3]; mouse, in vivo): 3.66 % ID/g | LS174T Tumor ([3]; mouse, in vivo): 1.53 % ID/g | Liver ([3]; mouse, in vivo): 1.42 % ID/g | Lungs ([3]; mouse, in vivo): 2.36 % ID/g | Muscle ([3]; mouse, in vivo): 0.30 % ID/g | Spleen ([3]; mouse, in vivo): 1.04 % ID/g | Stomach ([3]; mouse, in vivo): 1.07 % ID/g
